Measured values as given in paper PMC4357725 (Nucleic Acids Research, 2015).

Target: T1, ϕ29 DNA polymerase, wild type (bacteriophage ϕ29, UniProt P03680 1-575)
T1 construct: DNA polymerase of bacteriophage ϕ29, wild type; 66 kDa; also called viral DNA polymerase
T1 sequence (looked up): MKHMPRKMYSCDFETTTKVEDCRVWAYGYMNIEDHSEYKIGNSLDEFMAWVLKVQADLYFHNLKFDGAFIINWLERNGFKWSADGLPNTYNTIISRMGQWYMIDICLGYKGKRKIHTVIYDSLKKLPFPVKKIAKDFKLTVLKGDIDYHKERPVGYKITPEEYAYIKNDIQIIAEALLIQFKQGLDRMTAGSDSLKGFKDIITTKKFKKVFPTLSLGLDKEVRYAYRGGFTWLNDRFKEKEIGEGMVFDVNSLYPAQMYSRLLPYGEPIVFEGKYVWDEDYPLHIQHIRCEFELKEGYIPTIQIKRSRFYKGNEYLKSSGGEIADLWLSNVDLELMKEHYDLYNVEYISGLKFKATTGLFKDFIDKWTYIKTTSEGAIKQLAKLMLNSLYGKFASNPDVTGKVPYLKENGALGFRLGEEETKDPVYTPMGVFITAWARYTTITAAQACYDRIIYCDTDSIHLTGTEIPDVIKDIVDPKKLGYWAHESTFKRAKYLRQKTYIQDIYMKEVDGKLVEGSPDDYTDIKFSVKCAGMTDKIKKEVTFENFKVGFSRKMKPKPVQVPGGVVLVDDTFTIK
Assay: co-sedimentation; glycerol gradient sedimentation of DNA polymerase with TP N-terminal mutants (Supplementary Figure S2)
Settings: both partners purified

B1: ϕ29 TP mutant K32A/K33A/K34A (natural protein, bacteriophage ϕ29, UniProt P03681 1-266, looked up)
chain: MARSPRIRIKDNDKAEYARLVKNTKAKIARTAAAYGVDLTAEIDIPDLDSFETRAQFNKWKEQASSFTNRANMRYQFEKNAYGVVASKAKIAEIERNTKEVQRLVDEKIKAMKDKEYYAGGKPQGTIEQRIAMTSPAHVTGINRPHDFDFSKVRSYSRLRTLEESMEMRTDPQYYEKKMIQLQLNFIKSVEGSFNSFDAADELIEELKKIPPDDFYELFLRISEISFEEFDSEGNTVENVEGNVYKILSYLEQYRRGDFDLSLKGF
notes: terminal protein (TP) of bacteriophage ϕ29 with K32A, K33A and K34A
**Q.** Does B1 bind?
**A.** binds
